Laboratory results as given in the supplement of paper PMC9170038.

System: MS2 coat protein
Assay: apparent KD of MS2 coat protein; designed switch direction (-1 OFF switch, 1 ON switch): 1; higher = weaker reporter binding
In short: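 The buffer was Tris-HCl pH 7.5 with KCl, MgCl2, BSA, DTT, tRNA and Tween-20. In it, SNAP-549-labelled MS2 coat protein was titrated in doubling steps from 0.7 or 1.5 nM to 3 µM over chip-bound RNA switches transcribed by stalled E. coli RNA polymerase on Illumina chips. Apparent KD is the per-design median over clusters of curve fits to normalised fluorescence.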

[1] = input ligand: microRNA oligo, concentration not stated
[2] = Eterna round: R95, input ligand: FMN 200 uM
[3] = Eterna round: R95, input ligand: microRNA oligo, concentration not stated
[4] = Eterna round: R95, input ligand: none

Sequence | apparent KD of MS2 coat protein (input ligand: FMN 200 uM) [nM] | apparent KD of MS2 coat protein [1] [nM] | apparent KD of MS2 coat protein (input ligand: none) [nM] | apparent KD of MS2 coat protein [2] [nM] | apparent KD of MS2 coat protein [3] [nM] | apparent KD of MS2 coat protein [4] [nM]
GCUAGGAUAUGACGAGGAUCACCCGUUAGAAGGAGCUUCAGCUAGGAUAUGACGAGGAUCACCCGUUAGAAGGAGCACUACUCU [pwkr ssNG3 DX 2xF5 +2xFMN.8] (Eterna round: R96, puzzle: Same State NG 3) | 205 | 90.9 | 91.4 |  |  | 
UUAAUUAAUUAAUUAUACAUGAGGAUCACCCAUGUAAGUGAUCAGGAUAUCAGCUCGUUUAGAGCUGAGAAGGGAUACAUGUAA [SSNG3/13-A3] (Eterna round: R96, puzzle: Same State NG 3) | 111 | 139 | 214 |  |  | 
UAACAGUACAAUUUAGAUCUACAUGAGGAUCACCCAUGUACUGAGGAUAUCAGCUCGAAUAGAGCUGAGAAGGCAGAAGAACUA [SSNG3/11-A1] (Eterna round: R96, puzzle: Same State NG 3) | 35.8 | 127 | 203 |  |  | 
UCGGGCGUACUUGCUGACAUGAGGAUCACCCAUGUGAUUGGGAAGGAUAUGGUUCCGUUUCGGUUCCAGAAGGUCCUGGGUGCU [salish99_SSNG3_r04_313] (Eterna round: R96, puzzle: Same State NG 3) | 482 | 459 | 370 |  |  | 
AUUAUUAAUGCAGGAUAUGAUUAACAUGAGGAUCACCCAUGUGGUGUUGUGAGUAAGGAGAGUGAUCAGAAGGGCAUUUUUUAU [JMF's solution 15] (Eterna round: R96, puzzle: Same State NG 2) | 959 | 387 | 1190 |  |  | 
ACAUGAGAAUGAGGAUAUGUUGUACCUACAUGUGACAUGAGGAUCACCCAUGUGGUAAGUAUGAUACAGAAGGCAUAGAUAUGU [Equivalance 62 - Jieux - Same State NG 2] (Eterna round: R96, puzzle: Same State NG 2) | 18.9 | 18 | 32.2 |  |  | 
GCCAUCGAGUGAGGAUAUGGCACCGAAACGGUGCCAGAAGGCAUGUCAAAAGACAUGAGGAUCACCCAUGUAUUAUCGAUGGCA [Mat - Same State NG 1 - JL mod - D88] (Eterna round: R96, puzzle: Same State NG 1) | 28.5 | 208 | 237 |  |  | 
ACAAGCUUUUUUGUAGUGAAAGGUGGGAUACAUGAGGAUCACCCAUGUAUUGUUGUUAAUAUUUGUCCUCGUCUUAU [JR_SHM208A_Sub085] (puzzle: Sensor for hsa-mir-208a) |  |  |  | 31.8 | 13.9 | 36.3
UUCACCUUAUUUUACAUGAGGAUCACCCAUGUUUUCCCUACGUAGGAUAUCGAUGCUUGAUUGUUCGAGAAGGACGAUGUAAGU [JR_SSND3_Sub055] (Eterna round: R96, puzzle: Same State NG 3) | 33.4 | 21.7 | 33.3 |  |  | 
UGUUGUUAAUUAGGAUAUGGUCACAUGAGGAUCACCCAUGUAAUGUCGAUGCUAUGUGGAUACGAUCAGAAGGAAUGGCUAACA [SameState NG2 #94] (Eterna round: R96, puzzle: Same State NG 2) | 93.3 | 225 | 175 |  |  | 
CUGCUACAUGAGGAUCACCCAUGUUGGAGUGAUGCAGGAUAUGUGGGACCAGAAGAUGAAACAGAAGGGCAAAGAA [JR_SS!_Sub005] (puzzle: Same State 1) |  |  |  | 98.4 | 119 | 97.6
AAAGCACAUGAGGAUCACCCAUGUGGAAAUAACACAGGAUAUCCGGCCGAAACUAAGGUGGGAGAAGGGUGACCUA [Aeriste] (puzzle: Same State 1) |  |  |  | 191 | 40.2 | 73.5
UAUGACUUACAAGGAUAUUAAUAACAUGAGGAUCACCCAUGUGGCUGUGUGUGUUAGAUAAGCUAUAAGAAGGUGUGUGUGUUU [JR_SSNG2_Sub095] (Eterna round: R96, puzzle: Same State NG 2) | 66.2 | 244 | 223 |  |  | 
UGGUAACAUGAGGAUCACCCAUGUCAAAUGAAUCAAGGAUAUGGGAAAGGAGAAGAGAAACCAGAAGGUGAGGUUG [Altered State 1-15 - Jieux - Same State 1] (puzzle: Same State 1) |  |  |  | 108 | 205 | 167
UUAAUAAUGUAAGGAUAUACAUGAGGAUUUCUCGUAGAAGGUACAGGACAUGAGGAUCACCCAUGUAUCGCUCCGUAGAGCGUA [Mat - Same State NG 1 - JL mod - D23] (Eterna round: R96, puzzle: Same State NG 1) | 601 | 228 | 299 |  |  | 
AGUCCAGCCUGAGCUGGACAAAAGCAUGUACAUGAGGAUCACCCAUGUUCAUGUACAAGCUUUUUGCUCGUCAAAAG [Mat - hsa-mir-208a - Mod of JL - 67] (puzzle: Sensor for hsa-mir-208a) |  |  |  | 180 | 18.3 | 372
GCUCGAAUCAGAACCAACAUGAGGAUCACCCAUGUAUGUUGGUAGGAUAUCGUUUCUAAGAGAAACGAGAAGGGCCGAACGAGC [SameState NG3 #5] (Eterna round: R96, puzzle: Same State NG 3) | 224 | 132 | 212 |  |  | 
UCUUGGUUUUUGCUCGUUUUUUGUGUUGAACAUGAGGAUCACCCAUGUAUUGUACGGUCCGGUUUAAUAGUGGUCCA [JMF 43] (puzzle: Sensor for hsa-mir-208a) |  |  |  | 95.4 | 59.8 | 105
AGGCUCAGACGAGGAUAUAUGUGAUCACAUGAGGAUCACCCAUGUCUCGAGCUUCGGCUCGAGACAUAGAAGGUGUCUGAGCCA [SSNG2/3-C1] (Eterna round: R96, puzzle: Same State NG 2) | 76.4 | 3.03 | 32.3 |  |  | 
GAGUGAUGGGUUAGUAACUGCUAGGAAGGACAUGAGGAUCACCCAUGUGAGUAACGAGCUUGUGCUCGUCUUAUAAG [JR_SHM208A_Sub021] (puzzle: Sensor for hsa-mir-208a) |  |  |  | 167 | 89.4 | 325
GGAAACAGAGGAGGAUAUGCAGAGGAUCACCCUGUAGAAGGCCUCGAAAGGAGGAUAUGCAGAGGAUCACCCUGUAGAAGGCCU [pwkr ssNG DX.26] (Eterna round: R96, puzzle: Same State NG 1) | 72.1 | 156 | 208 |  |  | 
UAAACUUCUUUUAGUGUAAUGCAAGUGAUACAUGAGGAUCACCCAUGUUUUGGAUCGUGUUAUUUUGUUCGUCUUAA [JR_SHM208A_Sub077] (puzzle: Sensor for hsa-mir-208a) |  |  |  | 33.2 | 30.3 | 42.9
